Consider 1 substance from PMC6538167.

This assay concerns the target Sodium/potassium-transporting ATPase subunit alpha-1 (human (endogenous in frontal lobe tissue)) (UniProt P05023).

SST14 (peptide): the total ^86Rb^+ uptake in HEK293 cells in the presence of SST14 (50 μM), compared to controls was 74.4 % of control; the total ^86Rb^+ uptake in ReN (ReNcell VM) cells in the presence of SST14 (50 μM), compared to controls is 91.5 % of control; the total ^86Rb^+ uptake in mouse N2a cells in the presence of SST14 (50 μM), compared to controls was 53.6 % of control.
